Test results reported in the supplement of paper PMC7125110.
± gives the standard error. For part of these data: This sample holds only a part of the variants without activity.

B1: glmS ribozyme (parent)
chain: AUAAAAGCGCCAGAACUACAGAAAUGUAGUUGACGAGGAGGAGGUUUAUCGAAUUUUCGGCGGAUGCCUCCAAA

Experiments:
Conditions in all cases: with glucosamine-6-phosphate
[1] = variants of: B1; assay: kcat; higher = faster cleavage; RNA array
In short: (§1)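 On sequenced MiSeq chips, barcoded ribozyme variants were made in situ by E. coli RNA polymerase and followed at 37 °C through a hybridised Cy3 probe. Glucosamine-6-phosphate was flowed in at 40 μM to 10 mM in HEPES/KCl/Mg(OAc)2 buffer. Exponential fits to normalised per-tile medians gave kobs, and weighted Michaelis–Menten fits gave kcat and KM.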

[2] = variants of: B1; assay: KM; higher = weaker cofactor use; RNA array
In short: as §1

[3] = variants of: B1; assay: self-cleavage kobs at 640 uM GlcN6P; higher = faster cleavage; RNA array
In short: as §1

[4] = variants of: B1; assay: self-cleavage kobs at 2500 uM GlcN6P; higher = faster cleavage; RNA array
In short: as §1

[5] = variants of: B1; assay: self-cleavage kobs at 10000 uM GlcN6P; higher = faster cleavage; RNA array
In short: as §1

[6] = variants of: B1; assay: self-cleavage kobs at 160 uM GlcN6P; higher = faster cleavage; RNA array
In short: as §1

[7] = variants of: B1; assay: self-cleavage kobs at 40 uM GlcN6P; higher = faster cleavage; RNA array
In short: as §1

| Variant | kcat [1] | KM [2] | self-cleavage kobs at 640 uM GlcN6P [3] | self-cleavage kobs at 2500 uM GlcN6P [4] | self-cleavage kobs at 10000 uM GlcN6P [5] | self-cleavage kobs at 160 uM GlcN6P [6] | self-cleavage kobs at 40 uM GlcN6P [7] |
| --- | --- | --- | --- | --- | --- | --- | --- |
| U47A U54A U65C | 0.00046 ± 0.0001 s⁻¹ | 1750 ± 700 µM | 0.000114 ± 2.7e-05 s⁻¹ | 0.000387 ± 0.0001 s⁻¹ | 0.000358 ± 8.9e-05 s⁻¹ | – | – |
| U45A A52C | 6.93e-05 ± 3e-05 s⁻¹ | – | – | 0.000121 ± 3.4e-05 s⁻¹ | 5.55e-05 ± 1.5e-05 s⁻¹ | < 1e-05 s⁻¹ | – |
| A48U C68U | 7.9e-05 ± 4.9e-06 s⁻¹ | 435 ± 140 µM | 4.57e-05 ± 6.9e-06 s⁻¹ | 7.48e-05 ± 7.7e-06 s⁻¹ | 7.25e-05 ± 6.1e-06 s⁻¹ | – | – |
| U47C C70U | 0.00786 ± 0.0023 s⁻¹ | 2070 ± 790 µM | 0.00151 ± 0.00028 s⁻¹ | 0.00519 ± 0.00095 s⁻¹ | 0.00635 ± 0.0016 s⁻¹ | 0.000483 ± 0.00014 s⁻¹ | 0.000179 ± 2.6e-05 s⁻¹ |
| U46G A53C | 0.00122 ± 6.4e-05 s⁻¹ | 2790 ± 250 µM | 0.000231 ± 4.3e-05 s⁻¹ | 0.000609 ± 9.9e-05 s⁻¹ | 0.000938 ± 0.00012 s⁻¹ | 5.96e-05 ± 1.8e-05 s⁻¹ | – |
| U46C A52G | 0.000634 ± 0.00015 s⁻¹ | 5990 ± 2100 µM | 7.1e-05 ± 1.4e-05 s⁻¹ | 0.000161 ± 3.6e-05 s⁻¹ | 0.000412 ± 7e-05 s⁻¹ | – | – |
| U45A C68U | 0.0022 ± 0.00039 s⁻¹ | 1080 ± 320 µM | 0.000729 ± 0.00013 s⁻¹ | 0.00176 ± 0.00032 s⁻¹ | 0.00194 ± 0.00027 s⁻¹ | 0.000537 ± 0.00012 s⁻¹ | 7.41e-05 ± 1.2e-05 s⁻¹ |
| A48U U65C | 4.55e-05 ± 6.5e-06 s⁻¹ | – | – | 4.16e-05 ± 1.4e-05 s⁻¹ | 3.92e-05 ± 1.5e-05 s⁻¹ | – | < 1e-05 s⁻¹ |
| U47C C58G | 6.37e-05 ± 7.3e-07 s⁻¹ | 2170 ± 92 µM | – | 3.41e-05 ± 1.1e-05 s⁻¹ | 5.23e-05 ± 7.5e-06 s⁻¹ | – | – |
| U47A C70G | 0.000131 ± 1.7e-05 s⁻¹ | – | 0.00011 ± 1.3e-05 s⁻¹ | – | 0.000128 ± 2.5e-05 s⁻¹ | 9.75e-05 ± 2.2e-05 s⁻¹ | – |
| A48G | 0.000117 ± 1.3e-05 s⁻¹ | 845 ± 350 µM | 4.49e-05 ± 1.5e-06 s⁻¹ | 0.00011 ± 2.2e-06 s⁻¹ | 0.000103 ± 1.5e-06 s⁻¹ | 1.61e-05 ± 3.1e-06 s⁻¹ | – |
| A48C | 0.000456 ± 3.9e-05 s⁻¹ | 2180 ± 390 µM | 9.91e-05 ± 2.7e-06 s⁻¹ | 0.000279 ± 6.6e-06 s⁻¹ | 0.000362 ± 6.6e-06 s⁻¹ | 2.69e-05 ± 2.4e-06 s⁻¹ | – |
| A48U | 0.000759 ± 5.7e-05 s⁻¹ | 2420 ± 350 µM | 0.000153 ± 3.5e-06 s⁻¹ | 0.000432 ± 1e-05 s⁻¹ | 0.000593 ± 1.1e-05 s⁻¹ | – | < 1e-05 s⁻¹ |
| U45C U56A | 0.000778 ± 0.00024 s⁻¹ | – | 0.000288 ± 3.9e-05 s⁻¹ | 0.000377 ± 6.1e-05 s⁻¹ | 0.000928 ± 0.00015 s⁻¹ | 7.1e-05 ± 1.5e-05 s⁻¹ | – |
| U46G C50U U69A | 3.77e-05 ± 1.1e-05 s⁻¹ | – | – | – | 4.11e-05 ± 1.3e-05 s⁻¹ | – | – |
| U47C A53C | 0.00196 ± 0.00041 s⁻¹ | 1380 ± 440 µM | 0.000497 ± 0.00012 s⁻¹ | 0.00163 ± 0.00044 s⁻¹ | 0.00173 ± 0.00032 s⁻¹ | – | 6.18e-05 ± 1.1e-05 s⁻¹ |

| Variant | kcat [1] | KM [2] | self-cleavage kobs at 640 uM GlcN6P [3] | self-cleavage kobs at 2500 uM GlcN6P [4] | self-cleavage kobs at 10000 uM GlcN6P [5] | self-cleavage kobs at 160 uM GlcN6P [6] | self-cleavage kobs at 40 uM GlcN6P [7] |
| --- | --- | --- | --- | --- | --- | --- | --- |
| U47A C61U | 2.03e-05 ± 6.6e-06 s⁻¹ | – | – | – | – | – | < 1e-05 s⁻¹ |
| A48G A53U | 6.17e-05 ± 9.3e-06 s⁻¹ | – | – | 4.65e-05 ± 1.4e-05 s⁻¹ | 5.16e-05 ± 7.9e-06 s⁻¹ | – | – |
| U45A U47C | 0.00985 ± 0.0035 s⁻¹ | 2660 ± 1300 µM | 0.00165 ± 0.00043 s⁻¹ | 0.0091 ± 0.0044 s⁻¹ | 0.00776 ± 0.0024 s⁻¹ | – | 0.00017 ± 4.6e-05 s⁻¹ |
| A48U C50G C67A C68U | 1.99e-05 ± 2.7e-06 s⁻¹ | – | – | – | – | – | – |
| U46A C68U | 0.00114 ± 0.00016 s⁻¹ | 2350 ± 540 µM | 0.000233 ± 3.5e-05 s⁻¹ | 0.000743 ± 0.00014 s⁻¹ | 0.0009 ± 8.7e-05 s⁻¹ | 6.77e-05 ± 1.1e-05 s⁻¹ | 3.61e-05 ± 1.2e-05 s⁻¹ |
| A48G U54A | 0.000153 ± 2.2e-05 s⁻¹ | 1650 ± 590 µM | 3.77e-05 ± 9.3e-06 s⁻¹ | 0.000115 ± 1.8e-05 s⁻¹ | 0.000123 ± 1.8e-05 s⁻¹ | – | – |
| U45G G66U | 0.0036 ± 0.00029 s⁻¹ | 4540 ± 530 µM | 0.00042 ± 7.6e-05 s⁻¹ | 0.0014 ± 0.00027 s⁻¹ | 0.00245 ± 0.00032 s⁻¹ | 0.00012 ± 2.8e-05 s⁻¹ | 3.62e-05 ± 1.2e-05 s⁻¹ |
| A48U U57C U69G C70U | < 1e-05 s⁻¹ | – | – | – | – | – | – |
| U47A U54A | 0.0235 ± 0.0067 s⁻¹ | 1820 ± 700 µM | 0.00587 ± 0.001 s⁻¹ | 0.0118 ± 0.0025 s⁻¹ | 0.0314 ± 0.0084 s⁻¹ | 0.00186 ± 0.00037 s⁻¹ | 0.000584 ± 0.00012 s⁻¹ |
| A48U C67A | 0.000213 ± 8.2e-05 s⁻¹ | – | 0.00012 ± 1.5e-05 s⁻¹ | 0.000105 ± 2.4e-05 s⁻¹ | 0.000298 ± 4.3e-05 s⁻¹ | – | – |
| U45C C67G | 0.0224 ± 0.0058 s⁻¹ | 5680 ± 1800 µM | 0.00339 ± 0.0011 s⁻¹ | 0.00755 ± 0.0031 s⁻¹ | 0.0141 ± 0.0026 s⁻¹ | 0.000503 ± 0.00012 s⁻¹ | 0.000175 ± 3.4e-05 s⁻¹ |
| U47G C58G | 0.000117 ± 5.4e-05 s⁻¹ | – | 5.51e-05 ± 2.1e-05 s⁻¹ | 3.21e-05 ± 1.3e-05 s⁻¹ | 8.31e-05 ± 1.2e-05 s⁻¹ | – | – |
| U47G C58A | 0.000264 ± 4e-05 s⁻¹ | 2260 ± 690 µM | 5.5e-05 ± 1.2e-05 s⁻¹ | 0.000177 ± 4.2e-05 s⁻¹ | 0.000208 ± 3.2e-05 s⁻¹ | – | – |
| U46C U54C | 0.00487 ± 0.00041 s⁻¹ | 1870 ± 220 µM | 0.00119 ± 0.00012 s⁻¹ | 0.0028 ± 0.00042 s⁻¹ | 0.00438 ± 0.0011 s⁻¹ | 0.000406 ± 8.6e-05 s⁻¹ | 0.000109 ± 2e-05 s⁻¹ |
| U45C C67U C68A | 4.01e-05 ± 3.3e-06 s⁻¹ | 533 ± 230 µM | – | – | – | – | – |
